# Article PMC2988878 (Nature structural & molecular biology, 2010)
# Where no end group is shown, it is not given here.
# T1: Mpa residues 1-96 (Mpa1-96) (Mycobacterium tuberculosis, UniProt P9WQN5 1-96)
# T1 sequence: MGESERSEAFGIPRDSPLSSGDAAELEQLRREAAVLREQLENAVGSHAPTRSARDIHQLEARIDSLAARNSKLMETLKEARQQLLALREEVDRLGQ
# B1: Mpa coiled-coil domain, residues 46-96 (Mpa46-96) (domain or fragment)
# chain: SHAPTRSARDIHQLEARIDSLAARNSKLMETLKEARQQLLALREEVDRLGQ
# B2: Full-length prokaryotic ubiquitin-like protein, Pup1-64-GGQ with a C-terminal non-cleavable His6-tag (natural protein)
# chain: MAQEQTKRGGGGGDDDDIAGSTAAGQERREKLTEETDDLLDEIDDVLEENAEDFVRAYVQKGGQ
# Tests used:
# Test in all cases: […]
# [1] = biological target: B1
# [2] = biological target: B2
# [3] = biological target: T1, Mpa residues 1-96 (Mpa1-96)
binder,measurement,setting,value
"{His6‑tag}-STAAGQERREKLTEETDDLLDEIDDVLEENAEDFVRAYVQKGGE (domain or fragment, not fully specified) [N-terminal truncated prokaryotic ubiquitin-like protein, Pup21-64-GGE with an N-terminal His6-tag]",binding result,[1],binds
B1,binding result,[2],binds
B2,binding result,[3],binds
